B1: peptide of the C-terminus segment of TBC1D31 [human] / GST-praja2_(530–570) [modified: fluorescent dye on primary amines (NHS-ester labelling); fluorescent dye on primary amines (NHS-ester labelling)] [human] (parent complex)
chain 1: WDTTGQNLIKKVRNLRQRLTARARHRCQTPHLLAA
chain 2: LDGNNNLEDDSSVSEDLDVDWSLFDGFADGLGVAEAISYVD

Variants of: B1
Assay: microscale thermophoresis (MST); parent: 3.7e+04 nM

Row | Variant | Kd
1 | chain 1 WDTTGQNLIKKVANLAQRLTARARHRCQTPHLLAA | ~65 µM
